Reference: paper PMC11089518, “Development of Prolinol Containing Inhibitors of Hypoxanthine–Guanine–Xanthine Phosphoribosyltransferase: Rational Structure-Based Drug Design” (Journal of Medicinal Chemistry, 2024)

B1: Trypanosoma brucei hypoxanthine-guanine phosphoribosyltransferase isoform 1 (TBrHGPRT1) (enzyme, UniProt Q07010 1-210, looked up)
chain: MEPACKYDFATSVLFTEAELHTRMRGVAQRIADDYSNCNLKPLENPLVIVSVLKGSFVFTADMVRILGDFGVPTRVEFLRASSYGHDTKSCGRVDVKADGLCDIRGKHVLVLEDILDTALTLREVVDSLKKSEPASIKTLVAIDKPGGRKIPFTAEYVVADVPNVFVVGYGLDYDQSYREVRDVVILKPSVYETWGKELERRKAAGEAKR
notes: hypoxanthine-guanine phosphoribosyltransferase isoform HGPRT1 (cytoplasmic) of Trypanosoma brucei; source: expressed and purified to homogeneity as previously described
B2: human hypoxanthine-guanine phosphoribosyltransferase (human HGPRT) (enzyme)
chain: MATRSPGVVISDDEPGYDLDLFCIPNHYAEDLERVFIPHGLIMDRTERLARDVMKEMGGHHIVALCVLKGGYKFFADLLDYIKALNRNSDRSIPMTVDFIRLKSYCNDQSTGDIKVIGGDDLSTLTGKNVLIVEDIIDTGKTMQTLLSLVRQYNPKMVKVASLLVKRTPRSVGYKPDFVGFEIPDKFVVGYALDYNEYFRDLNHVCVISETGKAKYKA
notes: hypoxanthine-guanine phosphoribosyltransferase, human; source: expressed and purified to homogeneity as previously described

What was measured:
[1] = biological target: the molecule itself; assay: crystal structure; TbrHGPRT1 (8 mg/mL, 0.3 mM) with inhibitor 4 or 5, 0.2 M MgCl2, 0.1 M Bis-Tris pH 5.0, 20% PEG 3350, hanging drop; oligomer as refined in the asymmetric unit
[2] = biological target: the molecule itself; assay: crystal structure; human HGPRT (10 mg/mL, 0.4 mM) with inhibitor 1 (0.3 M calcium acetate, 20% PEG 3350) or 5 (0.3 M sodium acetate, 17.5% PEG 3350), hanging drop; oligomer as refined in the asymmetric unit

Protein | stoichiometry N [1] | stoichiometry N [2]
B1 | 2 | –
B2 | – | 4
